From article PMC12874534 come the findings set out here.

The target of this assay is Bcl-XL-126Bpa (UniProt Q07817). In words: BLI.
UniProt Q07817, sequence (Q07817 whole entry): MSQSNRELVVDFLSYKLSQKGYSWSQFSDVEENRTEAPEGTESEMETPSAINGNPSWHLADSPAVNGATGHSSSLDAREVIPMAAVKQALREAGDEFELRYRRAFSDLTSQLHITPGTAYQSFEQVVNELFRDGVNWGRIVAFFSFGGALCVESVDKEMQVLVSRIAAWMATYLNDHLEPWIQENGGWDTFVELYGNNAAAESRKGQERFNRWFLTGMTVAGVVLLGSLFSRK

The Kd is the concentration at which binding is half-saturated. Turning to “Bid-83Bpa (from UniProt P55957 1-195) (natural protein)”, the dissociation constant Kd was 1.77 µM.
